Data: patent US20100041597A1 (published 2010)

Key:
PKC-ε (purified isoform) [1] = target: T1, PKC-ε (purified isoform) (Homo sapiens (Human), UniProt Q02156 1-737); assay: competitive ELISA on purified PKC-ε vs anti-PKC-ε Ab; PRE 50 µM
T1 construct: also called PKC-epsilon; PKCepsilon
T1 sequence: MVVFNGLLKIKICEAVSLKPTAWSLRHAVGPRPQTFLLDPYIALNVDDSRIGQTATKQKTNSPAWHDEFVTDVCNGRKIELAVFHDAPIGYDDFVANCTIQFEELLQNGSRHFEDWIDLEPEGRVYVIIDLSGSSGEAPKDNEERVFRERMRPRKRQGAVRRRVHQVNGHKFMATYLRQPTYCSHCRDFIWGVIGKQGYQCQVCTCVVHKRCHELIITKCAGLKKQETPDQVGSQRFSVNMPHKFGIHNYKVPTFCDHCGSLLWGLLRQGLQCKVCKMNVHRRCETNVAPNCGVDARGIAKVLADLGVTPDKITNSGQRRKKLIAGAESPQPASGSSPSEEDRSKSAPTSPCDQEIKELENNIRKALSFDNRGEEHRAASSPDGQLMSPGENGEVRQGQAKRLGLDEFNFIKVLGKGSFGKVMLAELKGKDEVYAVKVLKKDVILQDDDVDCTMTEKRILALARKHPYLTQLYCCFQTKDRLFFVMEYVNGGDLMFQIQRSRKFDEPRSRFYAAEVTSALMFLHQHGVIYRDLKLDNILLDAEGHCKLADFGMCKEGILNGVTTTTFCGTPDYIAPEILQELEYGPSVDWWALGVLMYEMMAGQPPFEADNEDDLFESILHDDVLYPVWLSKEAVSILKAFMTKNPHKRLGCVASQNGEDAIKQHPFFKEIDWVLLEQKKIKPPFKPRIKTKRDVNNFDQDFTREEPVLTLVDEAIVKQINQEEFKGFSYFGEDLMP
Method: (§1) Greiner 96 well ELISA plates were coated with the appropriate PKC isoform diluted in PBSN (PBS with Calcium/Magnesium+0.05% Sodium azide w/w). 50 μL/well at 250 ng/mL was used. Control wells contained PBSN only. Plates were incubated overnight at 4° C.
(§2) The plates were washed 3 times with 200 μL of dH₂O per well, then 100 μL of blocking solution was added per well and the plate incubated for 1 h at 37° C. The washing steps with dH₂O were repeated and 50 μL of the appropriate PRE solution (PRE stock solution [20 mM in DMSO] diluted in PBSN) was added and the plate incubated for 1 h at room temperature.
(§3) 50 μL of 1:1000 dilution of Alkaline Phosphatase (AP) conjugated antibody (anti-rabbit for all except zeta, which was anti-goat) was then added and the plate incubated for 1 h at room temperature. Washing with dH₂O was then repeated. Finally, 100 μL of pNPP solution in pNPP buffer (2 mM MgCl₂, 100 mM Sodium bicarbonate in water, pH 9.8) was added to all wells and incubated for 8 minutes for α, βI, βII ε, and ζ, or for 15-20 mins for […] (until sufficient coloration is observed). The reaction was stopped by addition of Stop solution (2N NaOH) and the absorbance at 405 nm was read on a Galaxy Plate reader.

PKC-ε (purified isoform) [2] = target: T1, PKC-ε (purified isoform); assay: competitive ELISA on purified PKC-ε vs anti-PKC-ε Ab; PRE 100 µM
Method: as §1, §2, §3

PKC-α (purified isoform) [3] = target: T2, PKC-α (purified isoform) (Homo sapiens (Human), UniProt P17252 2-672); assay: competitive ELISA on purified PKC-α vs anti-PKC-α Ab; PRE 100 µM
T2 construct: also called PKC-alpha; PKCalpha
Method: as §1
(§4) After incubation, 5 μL of 1.1:400 anti-PKC (isoform specific antibody) was added per well (to provide a final concentration of 1:4000). For PKC-epsilon, 1.1:800 dilution was used and for PKC-zeta a 1.1:100 dilution was used due to high and low binding affinity, respectively. The plates were then incubated 1 h at room temperature, followed by washing with dH₂O as described above.
as §3

PKC-α (purified isoform) [4] = target: T2, PKC-α (purified isoform); assay: competitive ELISA on purified PKC-α vs anti-PKC-α Ab; PRE 200 µM
Method: as §1, §4, §3

[5] = target: T3, PKC-βII (purified isoform) (Homo sapiens (Human), UniProt P05771 2-621); assay: competitive ELISA on purified PKC-βII vs anti-PKC-βII Ab; PRE 100 µM
T3 construct: also called PKC-beta II
Method: as §1, §2, §3

T3 sequence (P05771 other isoform, or with tags, fused parts or gaps limits assumed): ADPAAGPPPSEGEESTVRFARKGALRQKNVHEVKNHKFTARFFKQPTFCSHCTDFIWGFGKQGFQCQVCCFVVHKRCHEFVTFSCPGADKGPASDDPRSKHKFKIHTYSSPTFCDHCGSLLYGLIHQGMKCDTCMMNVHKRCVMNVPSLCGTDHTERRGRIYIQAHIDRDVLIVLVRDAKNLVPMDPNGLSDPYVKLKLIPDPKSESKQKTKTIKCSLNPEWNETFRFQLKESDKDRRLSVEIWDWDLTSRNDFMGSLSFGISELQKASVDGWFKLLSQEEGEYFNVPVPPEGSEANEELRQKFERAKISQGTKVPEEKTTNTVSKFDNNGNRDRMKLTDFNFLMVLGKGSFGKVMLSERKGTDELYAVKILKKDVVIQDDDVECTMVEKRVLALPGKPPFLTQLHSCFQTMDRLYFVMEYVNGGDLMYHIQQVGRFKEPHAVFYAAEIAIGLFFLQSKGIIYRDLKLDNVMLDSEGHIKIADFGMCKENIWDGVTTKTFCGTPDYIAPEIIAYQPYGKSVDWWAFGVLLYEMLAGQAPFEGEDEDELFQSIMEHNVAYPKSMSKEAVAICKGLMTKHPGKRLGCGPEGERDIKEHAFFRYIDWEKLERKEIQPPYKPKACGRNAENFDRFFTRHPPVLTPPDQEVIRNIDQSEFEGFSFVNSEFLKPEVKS

Binder	binding capacity (%) (PKC-ε (purified isoform) [1])	binding capacity (%) (PKC-ε (purified isoform) [2])	binding capacity (%) (PKC-α (purified isoform) [3])	binding capacity (%) (PKC-α (purified isoform) [4])	binding capacity (%) [5]
Ac-KDAQNLI-NH2 (Synthetic peptide; also called peptide PRE 12; Ac-KDAQNLI-NH2) [PRE 12]	10.4%	0.28%	5.16%	0%	
Ac-RDAQNLI-NH2 (Synthetic peptide; also called peptide PRE 13; Ac-RDAQNLI-NH2) [PRE 13]	0%	0%			1.63%
Ac-KDANQLIGISI-NH2 (Synthetic peptide; also called peptide PRE 6) [PRE 6]					0%
Ac-ISIGILQNADK-NH2 (Synthetic peptide (retro form of PRE 4); also called peptide PRE 7) [PRE 7]	8.04%	14%	6.72%	6.59%	
Ac-KDAQNLIGISI-NH2 (Synthetic peptide; also called peptide PRE 4) [PRE 4]			21.9%	22.8%	13.5%
Ac-RDAQNLIGISI-NH2 (Synthetic peptide; also called peptide PRE 11) [PRE 11]	2.25%	13%	5.96%	13.3%	
Ac-AKGIQEVKGGDAQNLIGISI-NH2 (Synthetic peptide; also called peptide PRE 3) [PRE 3]	34%	31.5%	26.5%	22.6%	
